These results are taken from patent US11319368B2, “Treatment of hepatotoxicity with IL-11 antibody” (Singapore Health Services PTE LTD., priority 2019, dated 2022).

Series [1] has as its system human hepatocytes. The following applies: 0.2 mM H2O2, 24 hours.
Description: Human hepatocytes (5200, ScienCell) were grown and maintained at 37° C. and 5% CO2. Hepatocyte medium (5201, ScienCell) supplemented with 2% fetal bovine serum and 1% Penicillin-streptomycin was renewed every 2-3 days and cells were passaged at 80% confluence using standard trypsinization techniques. All the experiments were carried out at low cell passage (P2-P3) and cells were serum-starved for 16 hours prior to respective stimulations (24 hours) that were performed in serum-free hepatocyte media. Stimulated cells were compared to unstimulated cells that have been grown for the same duration under the same conditions (serum-free hepatocyte media), but without the stimuli. […] The levels of IL-11 in mouse serum and hepatocyte supernatant were quantified using Mouse IL-11 DuoSet (DY418 and DY008, R&D Systems) and Human IL-11 Quantikine ELISA kit [MUT], R&D Systems), respectively, according to the manufacturer's protocol.
Series [2] concerns rheumatoid synovial cells. The following applies: cited from earlier work.
Series [3] relates to AILI. Nature of the series: X209, NAC or NAC+X209 3 h after APAP in mice.
Description: Mice were administered anti-IL11Rα (X209) or IgG isotype control antibody at different times and doses, as described above or in the figure legends.
The levels of alanine transaminase (ALT) or aspartate aminotransferase (AST) in mouse serum and hepatocyte supernatant were measured using ALT Activity (ab105134, Abcam) or AST (ab105135, Abcam) Assay Kits. Liver glutathione sulfhydryl (GSH) measurements were performed using Glutathione Colorimetric Detection Kit (EIAGSHC, Thermo Fisher). All colorimetric assays were performed according to the manufacturer's protocol.
Western blots were carried out from hepatocyte and liver tissue lysates. Hepatocytes and tissues were homogenized in radioimmunoprecipitation assay (RIPA) buffer containing protease and phosphatase inhibitors (Thermo Fisher), followed by centrifugation to clear the lysate. Protein concentrations were determined by Bradford assay (Bio-Rad). Equal amounts of protein lysates were separated by SDS-PAGE, transferred to PVDF membrane, and subjected to immunoblot analysis for the indicated primary antibodies. Proteins were visualized using the ECL detection system (Pierce) with the appropriate secondary antibodies.
The test system of series [4] is primary human hepatocytes. Put plainly: IL11 stimulation of primary human hepatocytes with sgp130 or sIL11Rα. The following applies: for effect on IL11-induced hepatocyte death and signaling: IL11 20 ng/ml, sgp130, sIL11Rα 1 μg/ml; for effect on ALT release from IL11-stimulated hepatocytes: increasing doses. The class given is cell-based.
The subject of series [5] is primary human hepatocytes. Nature of the series: hyperIL11 or hyperIL6 stimulation of primary human hepatocytes, with or without sgp130. It counts as cell-based.
For a further series, the system named is kidney. The following applies: 100-1000 μg/kg, IP; 10 minutes prior to or 30-60 minutes following IR; cited from earlier work.
Series [6] relates to APAP overdose acute liver injury. Put plainly: Severe APAP overdose in mice, anti-IL11 antibody (X203) 16 h before. It counts as in vivo, mouse. The following applies: 20 mg/kg IP 16 hours before APAP 400 mg/kg; 24 hours after APAP.
Series [7] has as its system AILI. Nature of the series: rhIL11 or rmIL11 injection in APAP OD mice. It counts as in vivo, mouse. On the procedure:
FIGS. 10A to 10L. […] (A, B, K, L) 24 h. […] FC: fold change

In a further series the test system is liver. The conditions noted are these: single subcutaneous injection 500 μg kg^-1.
The next series has as its system mouse hepatocytes. Put plainly: rhIL11 versus rmIL11 on mouse hepatocytes. It counts as cell-based. An excerpt: Mouse hepatocytes (ABC-TC3928, AcceGen Biotech) were maintained in mouse hepatocyte medium (ABC-TM3928, AcceGen Biotech) supplemented with 1% Penicillin-streptomycin.
In series [8] the test system is human hepatocytes. Put plainly: rhIL11 versus rmIL11 on human hepatocytes. It counts as cell-based. The conditions noted are these: 10 ng ml^-1.

Take `OO` [H2O2, hydrogen peroxide]: the “IL-11 upregulated in the supernatant” value in the series with human hepatocytes [1] is listed as 10 fold.

For the molecule `COc1ccc2c(c1)c(CC(=O)O)c(C)n2C(=O)c1ccc(Cl)cc1` [indomethacin, reference compound], the “expression of IL-11” value in series [2] was “reduction in the expression of IL-11”.

On to `CC(=O)N[C@@H](CS)C(=O)O` [NAC, N-acetyl-cysteine, reference compound], for which, in the series with AILI [3] (3 h after APAP, NAC 500 mg kg^-1, X209 5 mg kg^-1), the ALT reduction is 38%. In the series with AILI [3] (NAC 500 mg kg^-1 3 h after APAP), the “serum levels of ALT and AST” value is “reduced serum levels of ALT and AST”.

As to “interferon-gamma: interferon-gamma (IFNγ)”, in series [2], the “expression of IL-11” value was “reduction in the expression of IL-11”.

B1: sgp130: human soluble gp130 Fc, inhibitor of trans-signaling complexes acting through gp130 (protein)
chain: ELLDPCGYISPESPVVQLHSNFTAVCVLKEKCMDYFHVNANYIVWKTNHFTIPKEQYTIINRTASSVTFTDIASLNIQLTCNILTFGQLEQNVYGITIISGLPPEKPKNLSCIVNEGKKMRCEWDGGRETHLETNFTLKSEWATHKFADCKAKRDTPTSCTVDYSTVYFVNIEVWVEAENALGKVTSDHINFDPVYKVKPNPPHNLSVINSEELSSILKLTWTNPSIKSVIILKYNIQYRTKDASTWSQIPPEDTASTRSSFTVQDLKPFTEYVFRIRCMKEDGKGYWSDWSEEASGITYEDRPSKAPSFWYKIDPSHTQGYRTVQLVWKTLPPFEANGKILDYEVTLTRWKSHLQNYTVNATKLTVNLTNDRYLATLTVRNLVGKSDAAVLTIPACDFQATHPVMDLKAFPKDNMLWVEWTTPRESVKKYILEWCVLSDKAPCITDWQQEDGTVHRTYLRGNLAESKCYLITVTPVYADGPGSPESIKAYLKQAPPSKGPTVRTKKVGKNEAVLEWDQLPVDVQNGFIRNYTIFYRTIIGNETAVNVDSSHTEYTLSSLTSDTLYMVRMAAYTDEGGKDGPEFTFTTPKFAQGEIE
modifications: left off: a dimerising Fc or GST
Regarding B1, in series [4], the “effect on IL11-induced hepatocyte death and signaling” value was “unaffected”; the “effect on ALT release from IL11-stimulated hepatocytes” value is reported as “no effect on ALT release”. In series [5] (increasing amounts of sgp130), the “hepatotoxic effects of hyperIL11 (ALT)” value is on record as “inhibited the hepatotoxic effects of hyperIL11”. Besides, the “signaling pathways downstream of hyperIL11 and hyperIL6” value in series [5] (sgp130 with hyperIL11 or hyperIL6 20 ng/ml) was “blocked the activation of signaling pathways downstream of both hyperIL11 (p-ERK/p-JNK) and hyperIL6 (p-STAT3)”.

B2: HyperIL11: IL11Rα:IL11 fusion protein which mimics the trans-signalling complex (SEQ ID NO:21) (protein)
chain: MSSSCSGLSRVLVAVATALVSASSPCPQAWGPPGVQYGQPGRSVKLCCPGVTAGDPVSWFRDGEPKLLQGPDSGLGHELVLAQADSTDEGTYICQTLDGALGGTVTLQLGYPPARPVVSCQAADYENFSCTWSPSQISGLPTRYLTSYRKKTVLGADSQRRSPSTGPWPCPQDPLGAARCVVHGAEFWSQYRINVTEVNPLGASTRLLDVSLQSILRPDPPQGLRVESVPGYPRRLRASWTYPASWPCQPHFLLKFRLQYRPAQHPAWSTVEPAGLEEVITDAVAGLPHAVRVSARDFLDAGTWSTWSPEAWGTPSTGPAGQSGGGGGSGGGSGGGSVPGPPPGPPRVSPDPRAELDSTVLLTRSLLADTRQLAAQLRDKFPADGDHNLDSLPTLAMSAGALGALQLPGVLTRLRADLLSYLRHVQWLRRAGGSSLKTLEPELGTLQARLDRLLRRLQLLMSRLALPQPPPDPPAPPLAPPSSAWGGIRAAHAILGGLHLTLDWAVRGLLLLKTRL
modifications: Hyper IL-11 (IL-11RAIL-11 fusion)
As for B2, the “ERK and JNK activation” value in series [5] (2.5 ng/ml to 20 ng/ml, 24 h) was “activated ERK and JNK in a dose-dependent manner”. Further, the “alanine transaminase (ALT) in the media” value in series [5] (dose range, 24 h) is on record as “dose-dependent increase in alanine transaminase (ALT)”.

B3: PEGylated rhIL11: PEGylated rhIL11 (Lee et al. 2012) (conjugate, UniProt P20809 22-199, looked up)
Interleukin-11: PGPPPGPPRVSPDPRAELDSTVLLTRSLLADTRQLAAQLRDKFPADGDHNLDSLPTLAMSAGALGALQLPGVLTRLRADLLSYLRHVQWLRRAGGSSLKTLEPELGTLQARLDRLLRRLQLLMSRLALPQPPPDPPAPPLAPPSSAWGGIRAAHAILGGLHLTLDWAVRGLLLLKTRL
modifications: PEG
For B3, in the series on kidney, the renoprotection entry is “The authors conclude that IL11 is renoprotective based on pre-”.

B4: X203: antagonist anti-IL11 antibody (Ng et al., Sci Transl Med. 2019) (antibody, V domains shown)
VH: EVQLQQSGPELVKPGASVKIPCKASGYTFTDYNMDWVKQSHGKSLEWIGDINPHNGGPIYNQKFTGKATLTVDKSSSTAYMELRSLTSEDTAVYYCARGELGHWYFDVWGTGTTVTVSS
VL: DIVLTQSPASLAVSLGQRATISCRASKSVSTSGYSYIHWYQQKPGQPPKLLIYLASNLDSGVPARFSGSGSGTDFTLNIHPVEEEDAATYYCQHSRDLPPTFGGGTKLEIK
In the case of B4, in series [6], the “serum ALT levels” value is “substantial reduction” and the “serum AST levels” value is reported as “substantial reduction”.

B5: sIL11Rα: soluble IL11Rα (human IL11Rα, R&D systems) (protein, UniProt Q14626 24-370, looked up)
extracellular domain: SPCPQAWGPPGVQYGQPGRSVKLCCPGVTAGDPVSWFRDGEPKLLQGPDSGLGHELVLAQADSTDEGTYICQTLDGALGGTVTLQLGYPPARPVVSCQAADYENFSCTWSPSQISGLPTRYLTSYRKKTVLGADSQRRSPSTGPWPCPQDPLGAARCVVHGAEFWSQYRINVTEVNPLGASTRLLDVSLQSILRPDPPQGLRVESVPGYPRRLRASWTYPASWPCQPHFLLKFRLQYRPAQHPAWSTVEPAGLEEVITDAVAGLPHAVRVSARDFLDAGTWSTWSPEAWGTPSTGTIPKEIPAWGQLHTQPEVEPQVDSPAPPRPSLQPHPRLLDHRDSVEQVAVLA
modifications: extracellular domain
For B5, in series [4], the “effect on IL11-induced hepatocyte death and signaling” value is reported as “unaffected”; the “effect on ALT release from IL11-stimulated hepatocytes” value is on record as “no effect on ALT release”.

B6: rmIL11: recombinant mouse IL11 (UniProtKB: P47873, Genscript) (protein)
chain: PGPPAGSPRVSSDPRADLDSAVLLTRSLLADTRQLAAQMRDKFPADGDHSLDSLPTLAMSAGTLGSLQLPGVLTRLRVDLMSYLRHVQWLRRAGGPSLKTLEPELGALQARLERLLRRLQLLMSRLALPQAAPDQPVIPLGPPASAWGSIRAAHAILGGLHLTLDWAVRGLLLLKTRL
For B6, the “hepatic GSH levels after APAP” value with AILI [7] (APAP injury) is listed as “did not”. In the series on AILI [7] (subcutaneous injection, APAP OD), the “protection against AILI” value is given as “not protective”. Further, the “hepatic ERK and JNK phosphorylation” value with liver was “gradual ERK and immediate JNK activation”. The “ERK and JNK phosphorylation, CASP3 cleavage” value in the series with mouse hepatocytes (10 ng ml^-1, 24 h) was “stimulated ERK and JNK phosphorylation and induced CASP3 cleavage”. In addition, in the series on mouse hepatocytes (24 h), the “mouse hepatocyte cell death (ALT in supernatant)” value is recorded as “induced mouse hepatocyte cell death”. Moreover, the “ERK and JNK signaling and hepatocyte death” value in the series on human hepatocytes [8] is recorded as “did not”.
